Assay results taken from patent publication US20260234255A1 (Genmab, published 2026).
Positions count from the first letter of the chain named.

What was measured:
[1] = biological target: T1, human CD30 (human, UniProt P28908 19-595); test: flow cytometry, HDLM-2 cells, experiment N = 1
T1 construct: The same molecule is used for CD30 on HL/ALCL/NHL cell lines; also called huCD30; TNFRSF8
T1 sequence: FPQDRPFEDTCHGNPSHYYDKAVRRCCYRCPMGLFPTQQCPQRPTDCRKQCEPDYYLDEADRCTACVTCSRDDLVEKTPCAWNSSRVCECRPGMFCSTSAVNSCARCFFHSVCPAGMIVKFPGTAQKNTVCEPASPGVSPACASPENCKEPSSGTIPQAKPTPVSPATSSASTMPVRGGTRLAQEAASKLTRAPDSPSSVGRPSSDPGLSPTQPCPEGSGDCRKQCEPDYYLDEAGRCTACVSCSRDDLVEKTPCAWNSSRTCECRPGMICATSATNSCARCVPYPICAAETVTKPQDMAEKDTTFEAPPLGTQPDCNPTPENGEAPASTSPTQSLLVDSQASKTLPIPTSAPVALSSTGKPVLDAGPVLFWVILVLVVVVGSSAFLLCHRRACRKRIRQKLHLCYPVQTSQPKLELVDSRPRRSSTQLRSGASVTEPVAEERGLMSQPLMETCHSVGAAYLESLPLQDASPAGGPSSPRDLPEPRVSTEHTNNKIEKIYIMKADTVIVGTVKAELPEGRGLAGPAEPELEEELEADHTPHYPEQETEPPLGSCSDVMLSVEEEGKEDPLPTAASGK

[2] = biological target: T1, human CD30; test: flow cytometry, L-82 cells (ALCL), range of 2 tests
Experimental: (§1) Cells (3×10⁴ cells/well) were incubated in polystyrene 96-well round-bottom plates (Greiner bio-one, cat. no. 650180) with serial dilutions of antibodies (range 0.0046 to 10 μg/mL in 3-fold dilution steps) in 50 μL staining buffer at 4° C. for 30 min. After washing twice in staining buffer, cells were incubated with 50 μL secondary antibody at 4° C. for 30 min. […] Next, cells were washed twice in staining buffer, resuspended in 100 μL staining buffer supplemented with TO-PRO-3 iodide (Thermo Fisher Scientific; cat. no. T3605; 1:8000 dilution) and analyzed on a FACSCelesta flow cytometer (BD Biosciences, USA). Live cells were gated based on FSC/SSC and absence of TOPRO-3 staining. Binding curves were analyzed by non-linear regression of log-transformed data (sigmoidal dose-response with variable slope, four parameters) using GraphPad Prism V7.02 software (GraphPad Software, San Diego, CA, USA).

[3] = biological target: T1, human CD30; test: flow cytometry, L-540 cells (HL), average of 3 tests
Experimental: as §1

[4] = biological target: T1, human CD30; test: flow cytometry, HDLM-2 cells (HL), average of 3 tests
Experimental: as §1

[5] = biological target: T1, human CD30; test: flow cytometry, L-1236 cells (HL), average of 3 tests
Experimental: as §1

[6] = biological target: T1, human CD30; test: flow cytometry, SUP-M2 cells (ALCL), range of 3 tests
Experimental: as §1

[7] = biological target: T1, human CD30; test: flow cytometry, DL-40 cells (ALCL), average of 3 tests
Experimental: as §1

[8] = biological target: T2, complement protein C1q (human, UniProt P02745 23-245; P02746 28-253; P02747 29-245); test: flow cytometry with FITC anti-C1q; antibody-opsonized activated human CD8+ T cells, 20% normal human serum as the source of C1q
T2 construct: 20% human serum was used as the source of C1q
Experimental: Activated CD8⁺ T cells were seeded in a round-bottom 96-well plate (30,000 cells/well), pelleted, and resuspended in 30 μL assay medium (RPMI-1640 with 25 mM HEPES and L-glutamine, supplemented with 0.1% [w/v] bovine serum albumin fraction V (BSA; Roche, cat. no. 10735086001) and penicillin/streptomycin).
Human serum (20 μL/well; Sanquin, lot 20L15-02), as a source of C1q, was added to a final concentration of 20%. Cells were incubated on ice for 45 min, followed by two washes with cold GMB FACS buffer and incubation with 50 μL fluorescein isothiocyanate (FITC)-conjugated rabbit anti-human C1q (final concentration of 20 μg/mL (DAKO, cat no. F0254); diluted 1:75 in GMB FACS buffer) in the presence or absence of allophycocyanin-conjugated mouse-anti-CD8 (BD Biosciences, cat. no. 555369; diluted 1:50 in GMB FACS buffer) in the dark at 4° C. for 30 min. […] C1q binding to viable cells (as identified by DAPI exclusion) was analyzed by flow cytometry on an iQue3 Screener (Intellicyt Corporation). Data were analyzed using iQue software (Intellicyt Corporation, ForeCyt® Enterprise Client Edition 6.2 [R3], Version 6.2.652).

T2 sequence (P02745 23-245 limits assumed, chain 1 of 3): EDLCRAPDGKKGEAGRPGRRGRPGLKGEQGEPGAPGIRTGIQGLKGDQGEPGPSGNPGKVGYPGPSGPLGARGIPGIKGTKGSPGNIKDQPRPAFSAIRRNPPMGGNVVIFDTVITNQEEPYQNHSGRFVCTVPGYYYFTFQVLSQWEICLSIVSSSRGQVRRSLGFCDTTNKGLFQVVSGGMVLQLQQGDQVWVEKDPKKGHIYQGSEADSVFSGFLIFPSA
T2 sequence (P02746 28-253 limits assumed, chain 2 of 3): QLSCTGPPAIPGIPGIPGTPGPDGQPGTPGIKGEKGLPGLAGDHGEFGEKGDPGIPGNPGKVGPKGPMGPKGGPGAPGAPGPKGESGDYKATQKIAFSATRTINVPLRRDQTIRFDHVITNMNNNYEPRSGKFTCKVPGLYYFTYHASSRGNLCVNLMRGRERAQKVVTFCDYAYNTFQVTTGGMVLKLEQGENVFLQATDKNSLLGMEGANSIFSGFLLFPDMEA
T2 sequence (P02747 29-245 limits assumed, chain 3 of 3): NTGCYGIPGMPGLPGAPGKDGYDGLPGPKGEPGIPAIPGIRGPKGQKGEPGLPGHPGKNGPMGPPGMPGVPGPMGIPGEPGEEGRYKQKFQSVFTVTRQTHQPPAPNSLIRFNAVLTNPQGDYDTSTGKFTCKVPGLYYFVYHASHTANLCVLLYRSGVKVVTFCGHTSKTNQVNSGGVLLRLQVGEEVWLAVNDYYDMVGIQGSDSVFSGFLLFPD

B1: bsG1-huCD3-FEALxCD30-MDX060-FEAR (bispecific antibody, human IgG1, kappa, lambda)
heavy 1: not shown
light 1: not shown
heavy 2: QVQLQQWGAGLLKPSETLSLTCAVYGGSFSAYYWSWIRQPPGKGLEWIGDINHGGGTNYNPSLKSRVTISVDTSKNQFSLKLNSVTAADTAVYYCASLTAYWGQGSLVTVSSASTKGPSVFPLAPSSKSTSGGTAALGCLVKDYFPEPVTVSWNSGALTSGVHTFPAVLQSSGLYSLSSVVTVPSSSLGTQTYICNVNHKPSNTKVDKRVEPKSCDKTHTCPPCPAPEFEGGPSVFLFPPKPKDTLMISRTPEVTCVVVAVSHEDPEVKFNWYVDGVEVHNAKTKPREEQYNSTYRVVSVLTVLHQDWLNGKEYKCKVSNKALPAPIEKTISKAKGQPREPQVYTLPPSREEMTKNQVSLTCLVKGFYPSDIAVEWESNGQPENNYKTTPPVLDSDGSFFLYSRLTVDKSRWQQGNVFSCSVMHEALHNHYTQKSLSLSPG
light 2: DIQMTQSPTSLSASVGDRVTITCRASQGISSWLTWYQQKPEKAPKSLIYAASSLQSGVPSRFSGSGSGTDFTLTISSLQPEDFATYYCQQYDSYPITFGQGTRLEIKRTVAAPSVFIFPPSDEQLKSGTASVVCLLNNFYPREAKVQWKVDNALQSGNSQESVTEQDSKDSTYSLSSTLTLSKADYEKHKVYACEVTHQGLSSPVTKSFNRGEC
notes: also called bsG1-huCD3xCD30-MDX060
For B1, the EC50 [1] was 0.145 µg/mL.

B2: bsG1-huCD3-FEALxCD30-MDX060-FERR (bispecific antibody, human IgG1, kappa, lambda)
heavy 1: not shown
light 1: not shown
heavy 2: B1 heavy 2 with G231R, A260D
light 2: B1 light 2
notes: Bispecific IgG1 made by controlled Fab-arm exchange; also called bsIgG1-huCD3-FEALxCD30-MDX060-FERR; bsG1-huCD3×CD30-MDX060
B2 gave an EC50 [2] of 0.184 to 0.215 µg/mL, an EC50 [3] of 0.323 µg/mL and an EC50 [4] of 0.167 µg/mL. It also gave an EC50 [5] of 0.202 µg/mL, an EC50 [6] of 0.134 to 0.223 µg/mL and an EC50 [7] of 0.236 µg/mL. B2: no binding (tested: about 30 µg/mL) [8].
